This assay deals with Myc-tagged Slo1QEERL. Briefly: cell-based or functional assay.

Turning to HA-tagged Slo1VEDEC, the reduction in mean surface expression of Slo1 (cell-surface biotinylation, densitometry) amounted to 50%.
